Laboratory results taken from US20210283252A1 (POLPHARMA BIOLOGICS S A, published 2021).

Assays:
[1] = target: T1, HIS-tagged α4β1 integrin (UniProt P13612 34-977; P05556 21-728, limits assumed); assay: VCAM-1 competitive ELISA; coated VCAM-1 as competitor, HIS-tagged α4β1 integrin in solution; highest of 26 batches
T1 construct: Soluble, HIS-tagged
Method: (§1) Alternatively, one can also measure VCAM-1 competitive binding by ELISA. The aim of this assay is to test the ability of natalizumab to inhibit interaction of α₄β₁ integrin with its cognate receptor VCAM-1 protein in a dose-dependent manner. Constant amount of the coated VCAM-1 protein is incubated with serial dilutions of natalizumab in the presence of HIS-tagged α₄β₁ integrin. Solid-phase associated VCAM-1 and soluble natalizumab now compete for binding to α₄β₁, integrin. The higher the natalizumab concentration the more α4β1 integrin is inhibited from binding to VCAM-1. The highest signal result is observed when no natalizumab is present. Bound HIS-tagged α₄β₁ integrin is subsequently detected with a biotinylated anti-HIS-tag antibody, POD-conjugated Streptavidin and a TMB-substrate reaction at the end of the assay. Data are analyzed with 4PL fitting model. Final result is expressed as a Relative Potency (REP) of tested sample in relation to reference standard. The method variability was determined at the level of 7% coefficient variation (CV) of intermediate precision within the qualification exercise. Additionally accuracy, linearity and specificity were tested.

[2] = target: T2, α4β7 integrin (UniProt P13612 34-970; P26010 20-723, limits assumed); assay: MadCAM-1 competitive ELISA; coated α4β7 integrin, Fc-tagged MadCAM-1 as competitor, bound natalizumab detected; 24 batches, n=3
Method: (§2) In still another alternative one can measure MadCAM-1 competitive binding by ELISA. The aim of this assay is to test the ability of natalizumab to inhibit interaction of α₄β₇ integrin with its cognate receptor—MadCAM-1 protein in a dose-dependent manner. Constant amount of the coated α₄β₇ integrin is incubated with serial dilutions of natalizumab in the presence of Fc-tagged MadCAM-1 receptor. Natalizumab and MadCAM-1 receptor now compete for binding to solid-phase associated α₄β₇ integrin. The higher the natalizumab concentration the more MadCAM-1 is inhibited from binding to α₄β₇ integrin. The lowest signal result is observed when no natalizumab is present. […] is subsequently detected with a POD-conjugated anti-human IgG antibody and a TMB-substrate reaction at the end of the assay. Data are analyzed with 4PL fitting model. Final result is expressed as a Relative Potency (REP) of tested sample in relation to reference standard. The method variability was determined at the level of 8% coefficient variation (CV) of intermediate precision within the qualification exercise. Additionally accuracy, linearity and specificity were tested.

[3] = target: T1, HIS-tagged α4β1 integrin; assay: VCAM-1 competitive ELISA; coated VCAM-1 as competitor, HIS-tagged α4β1 integrin in solution; lowest of 26 batches
Method: as §1

[4] = target: T1, HIS-tagged α4β1 integrin; assay: VCAM-1 competitive ELISA; coated VCAM-1 as competitor, HIS-tagged α4β1 integrin in solution; 26 batches, n=3
Method: as §1

[5] = target: T2, α4β7 integrin; assay: MadCAM-1 competitive ELISA; coated α4β7 integrin, Fc-tagged MadCAM-1 as competitor; highest of 24 batches
Method: as §2

[6] = target: T2, α4β7 integrin; assay: MadCAM-1 competitive ELISA; coated α4β7 integrin, Fc-tagged MadCAM-1 as competitor; lowest of 24 batches
Method: as §2

B1: Natalizumab reference product (Referent batches) (antibody, human IgG4, kappa, V domains shown)
VH: QVQLVQSGAEVKKPGASVKVSCKASGFNIKDTYIHWVRQAPGQRLEWMGRIDPANGYTKYDPKFQGRVTITADTSASTAYMELSSLRSEDTAVYYCAREGYYGNYGVYAMDYWGQGTLVTVSS
VL: DIQMTQSPSSLSASVGDRVTITCKTSQDINKYMAWYQQTPGKAPRLLIHYTSALQPGIPSRFSGSGSGRDYTFTISSLQPEDIATYYCLQYDNLWTFGQGTKVEIKR
Q: For B1, which “Relative Potency (REP), max” value [1] is on record?
A: 1.2 REP (relative to reference standard)

Q: And the “Relative Potency (REP), average” value [2]?
A: 0.995 REP (relative to reference standard)

Q: And the “Relative Potency (REP), min” value [3]?
A: 0.916 REP (relative to reference standard)

Q: What about the “Relative Potency (REP), average” value [4] of the same binder?
A: 1.04 REP (relative to reference standard)

Q: What about the “Relative Potency (REP), max” value [5] of the same binder?
A: 1.17 REP (relative to reference standard)

Q: What about the “Relative Potency (REP), min” value [6] of the same binder?
A: 0.83 REP (relative to reference standard)
